Data taken from patent publication US20120301492A1.

Each binder was assayed against mouse B6 class I antigens (Mouse MHC Class I; D^b or K^b molecules on the surface of RMA-S cells) (assay: RMA-S class I stabilisation, flow cytometry with FITC anti-D^b or anti-K^b; % increase of MFI over medium alone, peptide 25 ug/ml).

Row | Binding Affinity to Mouse MHC Class I | Binder
1 | 2.2% | ALLPAVPSL [WT1 peptide human p10-18 (…)]
2 | 5.8% | NLYQMTSQL [WT1 peptide p225-233 (…)]
3 | 1.2% | QMTSQLECM [WT1 peptide p228-236 (…)]
4 | 0.8% | YSSDNLYQM [WT1 peptide p221-229 (…)]
5 | 1% | NQMNLGATL [WT1 peptide p239-247 (…)]
6 | 33.6% | CMTWNQMNL [WT1 peptide p235-243 (…)]
7 | 52% | SCLESQPAI [WT1 peptide human p136-144 (…)]
8 | 1.2% | GCNKRYFKL [WT1 peptide p329-337 (…)]

These binders were tested against mouse B6 class I antigens (Mouse MHC Class I; D^b or K^b molecules on the surface of RMA-S cells) (assay: binding of 9-mer peptides within p117-139 to mouse B6 (H-2^b) class I antigens; RMA-S assay as for Table XLVII).

Row | Binder | Binding Affinity to Mouse MHC Class I
9 | PSQASSGQA [WT1 peptide P117-125 (…)] | 2%
10 | ARMFPNAPY [WT1 peptide P125-133 (…)] | 1%
11 | QARMFPNAP [WT1 peptide P124-132 (…)] | 1%
12 | ASSGQARMF [WT1 peptide P120-128 (…)] | 1%
13 | MFPNAPYLP [WT1 peptide P127-135 (…)] | 2%
14 | SQASSGQAR [WT1 peptide P118-126 (…)] | 2%
15 | SSGQARMFP [WT1 peptide P121-129 (…)] | 1%
16 | FPNAPYLPS [WT1 peptide P128-136 (…)] | 1%
17 | QASSGQARM [WT1 peptide P119-127 (…)] | 2%

The remaining lines, values ahead:

Row | Binding Affinity to Mouse MHC Class I | Binder
18 | 1% | APYLPSCLE [WT1 peptide P131-139 (…)]
19 | 1% | PNAPYLPSC [WT1 peptide P129-137 (…)]
20 | 79% | NAPYLPSCL [WT1 peptide P130-138 (…)]
